Results on five molecules are retold here after EP4772538A1 (Beijing Wisdomab Biotechnology Co., Ltd, dated 2026).

Assay [1] addresses T1, HLA-A02/MAGE-A4 complex on the cell surface (MAGE-A4230-239 (…) presented by HLA-A02) (human). Briefly: cell-based or functional assay.
The target of assay [2] is T2, HLA-A02 complex of … (MHC-P1-His), disulfide trap single-chain trimer (human).
T2 construct: also called recombinant protein MHC-P1
Briefly: SPR, Biacore T200, method of Section 3.1; affinity for MHC-P1.

The target in assay [3] is T1, HLA-A02/MAGE-A4 complex on the cell …. Briefly: cell-based or functional assay. This is another data set of the same source.
Assay [4] shares this target. Briefly: cell-based or functional assay. This is another data set of the same source.
Assay [5] has the same target. Briefly: cell-based or functional assay. This is another data set of the same source.
Assay [6] deals with T2, HLA-A02 complex of … (MHC-P1-His), …. Briefly: SPR, Biacore T200; antibody captured by anti-human IgG (Fc), MHC-P1-His injected, 25°C, 1:1 model.
In assay [7] the target is T3, HLA-A02 complex of alanine-scanning mutant peptide G5A of MAGE-A4230-239 on pulsed T2 cells (human).
T3 construct: whole, on cells
Briefly: flow cytometry on peptide-pulsed T2 cells, N18D10-Fc at 10 nM, anti-human IgG-FITC.

For assay [8], the target named is T4, HLA-A02 complex of alanine-scanning mutant peptide D4A of MAGE-A4230-239 on pulsed T2 cells (human).
T4 construct: whole, on cells
The description is as above.

Assay [9] addresses T5, HLA-A02 complex of alanine-scanning mutant peptide T9A of MAGE-A4230-239 on pulsed T2 cells (human).
T5 construct: whole, on cells
The description is as above.

Assay [10] addresses T6, HLA-A02 complex of alanine-scanning mutant peptide R6A of MAGE-A4230-239 on pulsed T2 cells (human).
T6 construct: whole, on cells
The description is as above.

Assay [11] concerns the target T7, HLA-A02 complex of alanine-scanning mutant peptide E7A of MAGE-A4230-239 on pulsed T2 cells (human).
T7 construct: whole, on cells
The assay is described as above.

Assay [12] addresses T8, HLA-A02 complex of alanine-scanning mutant peptide V10A of MAGE-A4230-239 on pulsed T2 cells (human).
T8 construct: whole, on cells
The assay is described as above.

The target in assay [13] is T9, HLA-A02 complex of alanine-scanning mutant peptide V2A of MAGE-A4230-239 on pulsed T2 cells (human).
T9 construct: whole, on cells
Described as above.

Assay [14] deals with T10, HLA-A02 complex of alanine-scanning mutant peptide H8A of MAGE-A4230-239 on pulsed T2 cells (human).
T10 construct: whole, on cells
The description is as above.

Assay [15] deals with T1, HLA-A02/MAGE-A4 complex on the cell …. Described as above.
Assay [16] addresses T11, HLA-A02 complex of alanine-scanning mutant peptide Y3A of MAGE-A4230-239 on pulsed T2 cells (human).
T11 construct: whole, on cells
The assay is described as above.

In assay [17] the target is T2, HLA-A02 complex of … (MHC-P1-His), …. Briefly: SPR, Biacore T200, method of Section 3.1; antibody captured, MHC-P1-His injected.

B1: anti-HLA-A02/MAGE-A4 complex and anti-CD3 control bispecific antibody 057G03 (bispecific antibody)
heavy 1: AQLVESGGGLVQPGGSLRLSCAASAYFSFKAMSWVRQAPGKGLEWVGSISPSGGSTYYNDNVLGRFTISRDNSKNTLYLQMNSLRAEDTAVYYCAKDVGFFDEWGQGTLVTVSSASTKGPSVFPLAPSSKSTSGGTAALGCLVEDYFPEPVTVSWNSGALTSGVHTFPAVLQSSGLYSLSSVVTVPSSSLGTQTYICNVNHKPSNTKVDEKVEPKSCDGGGGSGGGGSDIQMTQSPSSLSASVGDRVTITCRASQDIRNYLNWYQQKPGKAPKLLIYYTSRLESGVPSRFSGSGSGTDYTLTISSLQPEDFATYYCQQGNTLPWTFGQGTKVEIKSSASTKGPSVFPLAPSSKSTSGGTAALGCLVKDYFPEPVTVSWNSGALTSGVHTFPAVLQSSGLYSLSSVVTVPSSSLGTQTYICNVNHKPSNTKVDKRVERKSCVECPPCPAPEFEGGPSVFLFPPKPKDTLMISRTPEVTCVVVDVSHEDPEVKFNWYVDGVEVHNAKTKPREEQYNSTYRVVSVLTVLHQDWLNGKEYKCKVSNKALPASIEKTISKAKGQPREPQVYTLPPCREEMTKNQVSLWCLVKGFYPSDIAVEWESNGQPENNYKTTPPVLDSDGSFFLYSKLTVDKSRWQQGNVFSCSVMHEALHNHYTQKSLSLSPGK
heavy 2: AQLVESGGGLVQPGGSLRLSCAASAYFSFKAMSWVRQAPGKGLEWVGSISPSGGSTYYNDNVLGRFTISRDNSKNTLYLQMNSLRAEDTAVYYCAKDVGFFDEWGQGTLVTVSSASTKGPSVFPLAPSSKSTSGGTAALGCLVEDYFPEPVTVSWNSGALTSGVHTFPAVLQSSGLYSLSSVVTVPSSSLGTQTYICNVNHKPSNTKVDEKVERKSCVECPPCPAPEFEGGPSVFLFPPKPKDTLMISRTPEVTCVVVDVSQEDPEVQFNWYVDGVEVHNAKTKPREEQYNSTYRVVSVLTVLHQDWLNGKEYKCKVSNKALPASIEKTISKAKGQPREPQVCTLPPSQEEMTKNQVSLSCAVKGFYPSDIAVEWESNGQPENNYKTTPPVLDSDGSFFLVSKLTVDKSRWQEGNVFSCSVMHEALHNHYTQKSLSLSPGK
light: DIQMTQSPSSLSASVGDRVTITCRASQSISSYLAWYQQKPGKAPKLLIYDASIRDIGVPSRFSGSGSGTDFTLTISSLQPEDFATYYCQQYSSYPYTFGQGTKLEIKRTVAAPSVFIFPPSDRKLKSGTASVVCLLNNFYPREAKVQWKVDNALQSGNSQESVTEQDSKDSTYSLSSTLTLSKADYEKHKVYACEVTHQGLSSPVTKSFNRGEC
chain: EVQLVESGGGLVQPGGSLRLSCAASGYSFTGYTMNWVRQAPGKGLEWVALINPYKGVSTYNQKFKDRFTISVDKSKNTAYLQMNSLRAEDTAVYYCARSGYYGDSDWYFDVWGQGTLVTVSSASVAAPSVFIFPPSDEQLKSGTASVVCLLNNFYPREAKVQWKVDNALQSGNSQESVTEQDSKDSTYSLSSTLTLSKADYEKHKVYACEVTHQGLSSPVTKSFNRGEC
notes: also called 057D03 (variable regions)
B1: the “EC50 of activation of Jurkat-Dual cells via antigen peptide-pulsed T2 cells (QUANTI-Luc)” value in assay [1] was found to be 0.175 nM. Besides, in assay [2], the affinity, expressed as Kd, was 33 nM; the off-rate constant (koff) is 0.0167 s⁻¹; the kon stood at 507000 M⁻¹ s⁻¹. In addition, in assay [3], the “EC50 of activation of Jurkat-Dual cells via HLA-A02+/MAGE-A4+ tumor cells A375 (QUANTI-Luc)” value worked out at 0.749 nM. In addition, the “EC50 of killing of antigen peptide-pulsed T2 cells via PBMCs (LDH release)” value in assay [4] stood at 0.00453 nM. For the same molecule, in assay [5], the “EC50 of killing of A375 cells (HLA-A02+/MAGE-A4+) via PBMCs (LDH release)” value (“EC50 of killing of A375 cells” for short) amounted to 5.52 nM.

B2: TCRm x CD3 bispecific antibody 2N18D10+IMCR (bispecific antibody)
chain 1: EVQLVESGGGSVQTGETLRLSCTVSGFTFDDSDMGWYRQAPGNECELVSTITTDGSTYYADSVKGRFTISQDNAKTTAYLQMDSLKPEDTAVYYCAADLPILRPTPCGDSVLYNYWGQGTQVTVSSGGGGSGGGGSGGGGSEVQLVESGGGSVQTGETLRLSCTVSGFTFDDSDMGWYRQAPGNECELVSTITTDGSTYYADSVKGRFTISQDNAKTTAYLQMDSLKPEDTAVYYCAADLPILRPTPCGDSVLYNYWGQGTQVTVSSASERKSSVECPPCPAPEFEGGPSVFLFPPKPKDTLMISRTPEVTCVVVDVSQEDPEVQFNWYVDGVEVHNAKTKPREEQYNSTYRVVSVLTVLHQDWLNGKEYKCKVSNKALPASIEKTISKAKGQPREPQVCTLPPSQEEMTKNQVSLSCAVKGFYPSDIAVEWESNGQPENNYKTTPPVLDSDGSFFLVSKLTVDKSRWQEGNVFSCSVMHEALHNHYTQKSLSLSPGK
chain 2: not shown
Take B2: the “EC50 of activation of Jurkat-Dual cells via antigen peptide-pulsed T2 cells (QUANTI-Luc)” value in assay [1] is 0.0145 nM. In [2], the Kd was 0.388 nM, the koff was 7.61e-05 s⁻¹ and the kon was found to be 196000 M⁻¹ s⁻¹. In addition, the “EC50 of activation of Jurkat-Dual cells via HLA-A02+/MAGE-A4+ tumor cells A375 (QUANTI-Luc)” value in assay [3] worked out at 0.189 nM. Also, the “EC50 of killing of antigen peptide-pulsed T2 cells via PBMCs (LDH release)” value in assay [4] was 0.00236 nM. In assay [5], the “EC50 of killing of A375 cells” value was determined as 0.0498 nM.

B3: TCRm x CD3 bispecific antibody 2N18D10-h16+IMCR (bispecific antibody)
chain 1: QVQLVESGGGLVKPGGSLRLSCAVSGFTFDDSDMGWYRQAPGNECELVSTITTDGSTYYADSVKGRFTISQDNAKTSAYLQMNSLRAEDTAVYYCAADLPILRPTPCGDSVLYNYWGQGTTVTVSSGGGGSGGGGSGGGGSQVQLVESGGGLVKPGGSLRLSCAVSGFTFDDSDMGWYRQAPGNECELVSTITTDGSTYYADSVKGRFTISQDNAKTSAYLQMNSLRAEDTAVYYCAADLPILRPTPCGDSVLYNYWGQGTTVTVSSASERKSSVECPPCPAPEFEGGPSVFLFPPKPKDTLMISRTPEVTCVVVDVSQEDPEVQFNWYVDGVEVHNAKTKPREEQYNSTYRVVSVLTVLHQDWLNGKEYKCKVSNKALPASIEKTISKAKGQPREPQVCTLPPSQEEMTKNQVSLSCAVKGFYPSDIAVEWESNGQPENNYKTTPPVLDSDGSFFLVSKLTVDKSRWQEGNVFSCSVMHEALHNHYTQKSLSLSPGK
chain 2: not shown
notes: also called 22N18D10-h16+IMCR
On to B3, for which the “EC50 of activation of Jurkat-Dual cells via antigen peptide-pulsed T2 cells (QUANTI-Luc)” value in assay [1] is 0.0143 nM. In [2], binding was put at a Kd of 0.43 nM, the koff came to 7.83e-05 s⁻¹ and the kon worked out at 182000 M⁻¹ s⁻¹. Also, the “EC50 of activation of Jurkat-Dual cells via HLA-A02+/MAGE-A4+ tumor cells A375 (QUANTI-Luc)” value in [3] came out at 0.145 nM. The “EC50 of killing of antigen peptide-pulsed T2 cells via PBMCs (LDH release)” value in [4] amounted to 0.00256 nM. For the same molecule, the “EC50 of killing of A375 cells” value in assay [5] is 0.0761 nM.

B4: anti-HLA-A02/MAGE-A4 complex TCRm antibody N18D10-Fc (Fc fusion)
chain: EVQLVESGGGSVQTGETLRLSCTVSGFTFDDSDMGWYRQAPGNECELVSTITTDGSTYYADSVKGRFTISQDNAKTTAYLQMDSLKPEDTAVYYCAADLPILRPTPCGDSVLYNYWGQGTQVTVSS
notes: Camel VHH fused to the Fc region of human IgG1; not shown: Fc region of human IgG1
In [6], B4 had a Kd of 0.388 nM. For the same molecule, the koff in [6] was 7.18e-05 s⁻¹. In addition, the kon in assay [6] was found to be 185000 M⁻¹ s⁻¹. The “binding relative to the original peptide” value in [7] was -1.02%; in [8], 18.4%; in [9] it was 33.6%; in assay [10], -0.56%; in assay [11], 27.4%; in assay [12] it was 0.35%. Further, the “binding relative to the original peptide” value is 41.1% in assay [13], -0.13% in assay [14], 100% in assay [15] and -0.12% in [16].

B5: humanized anti-HLA-A02/MAGE-A4 complex TCRm antibody N18D10-h16-Fc (Fc fusion)
chain: QVQLVESGGGLVKPGGSLRLSCAVSGFTFDDSDMGWYRQAPGNECELVSTITTDGSTYYADSVKGRFTISQDNAKTSAYLQMNSLRAEDTAVYYCAADLPILRPTPCGDSVLYNYWGQGTTVTVSS
notes: Humanized VHH fused to the Fc region of human IgG1; not shown: Fc region of human IgG1
For the molecule B5, in assay [17], the Kd was 0.467 nM, the koff is 7.61e-05 s⁻¹ and the kon is 163000 M⁻¹ s⁻¹.
